Assay results reported in publication PMC1569432, “The yfhQ gene of Escherichia coli encodes a tRNA:Cm32/Um32 methyltransferase” (BMC Molecular Biology, 2006).

Target: the molecule itself
Assay: SEC; gel filtration of purified YfhQ on Superdex 200 in buffer B (50 mM Tris-HCl pH 7.5, 150 mM NaCl, 10 mM MgCl2, 10% glycerol); self-association, dimer

B1: YfhQ protein of Escherichia coli, His-tagged (enzyme, UniProt P0AE01 1-246, looked up)
chain: MLQNIRIVLVETSHTGNMGSVARAMKTMGLTNLWLVNPLVKPDSQAIALAAGASDVIGNAHIVDTLDEALAGCSLVVGTSARSRTLPWPMLDPRECGLKSVAEAANTPVALVFGRERVGLTNEELQKCHYHVAIAANPEYSSLNLAMAVQVIAYEVRMAWLATQENGEQVEHEETPYPLVDDLERFYGHLEQTLLATGFIRENHPGQVMNKLRRLFTRARPESQELNILRGILASIEQQNKGNKAE
notes: YfhQ (TrmJ), SPOUT superfamily methyltransferase of Escherichia coli; yfhQ gene in the pCA24N vector; theoretical mass of the His-tagged monomer 29.168 kDa; also called TrMet(Xm32); TrmJ; source: E. coli BL21 (DE3), purified (Ni2+ Chelating Sepharose, Superdex 200 gel filtration)
- stoichiometry N: 2
